Measurements from the nanobody polyreactivity screen of Harvey et al. (2022).

test: yeast display, Sf9 membrane polyspecificity reagent, FACS + sequencing; frameworks hold sequencing errors
Outline: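 A synthetic nanobody library was expressed on Saccharomyces cerevisiae BJ5465 by galactose induction for 36–48 hours. The library was stained for 1 hour at 4 °C with 10% biotinylated, detergent-solubilized Sf9 membrane reagent and enriched with streptavidin microbeads before FACS. Low and high (top ~1%) gates were set on anti-HA fluorescence for expression and streptavidin fluorescence for reagent binding, and each polyreactivity label reflects the gate of origin.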

Sequence	polyreactivity (PSR sort gate)
QVQLVESGGGSVQAGGSLRLSCAASGYIFGVYDMGWYRQAPGKERELVAAISSGGSTNYADSVKGRFTISRDNAKNTVYLQMNSLKPEDTAVYYCNADYIFYYEYDYWGQGTQVTVSS	low polyreactivity
QVQLVESGGGLVQAGGSLRLSCAASGSTFWSYTMGWYRQAPGKERELVAAIRFSGGSTYYADSVKGRFTISRDNAKNTVYLQMNSLKPEDTAVYYCAAGYYRRPYEYWGQGTQVTVSS	low polyreactivity
QVQLVESGGGLVQAGGSLRLSCAASGSTFGLNAMGWYRQAHGKERDVVAAITRSDITNYADSVKGRFTISRDNAKNTVYLQMNSLKPEDTAVYYCNKTPDRHRRYFGYGYWGQGTQVTVSS	low polyreactivity
QVQLEDSGGGLVQAGGSLRLICAASGSIFGYYAMGWDRQAPGKERELVAAIDSGGSTYYADSVKGRFTISRDNAKNTVYLQMNSLKPEDTAVYYCAAGVSSFSPYDSWGQGTQVTVSS	low polyreactivity
QVQLVESGGGLVQAGGILRLSCAASGFIFNRYAMGWSRQSPGKARELVADITGGSTYYADSVKGRFTISRDNAKNTVYLQMNSLKPEDTAVYYCAAYVWRYWHEYDYWGQGTQVTVSS	low polyreactivity
QVQLVESGGGLVQAGGSLRLSCAASGSTFISYAMGWSRQAPGKERELVAAISSSTGRTYYADSVKGRVTISRDNAKNTVYLQMNSLKPEDTAVYYCNAVHRYERDYWGQGTQVTVSS	high polyreactivity
QVQLVESGGGLVQAGGSLRISCAASGYIYGYNAMGWYRQAPGIAREFVAAIRFSGGSTYYADSVKGRFTISRDNAKNTVYLQMNSLKPEDTAVYYCAKRCYAHLIPIAYEYWGQGTQVTVSS	low polyreactivity
QDHLVESGGCLVQAGGTLRLSCAASGFTIGNYAMAWYRQPPGKERELVAAISWSGGSTYYADSVKGRFTISRDNAKNTVYLQMNSLNPEVTAVYYCNPKRGSLWESDYWGQGSQVTVSS	high polyreactivity
QVQLVESCGGLVQAGGSLRLSCAASGFIFLPYVMGWYRQAPGKERELVAAISGGGGITYYADSVKGRFTISRDNAKNTVYLQMNSLKPEDTAVYYCAAERPVAPYDYWGQGTQVTVSS	low polyreactivity
QVQLVESGGGLVQAGGSLRLSCAASGFTFRGYAMGWYRQAPGKERELVAAITSRGGTTYYADSVKGRFTISRDNAKNTVYLQMNSLKPEDTAVYYCATTGGYTRGIGWYNYWGQGTQVTVSS	high polyreactivity
QVQLVESGGGLVQAGGSLRLSCAASGSIFRYYAKGWSRQAPGKERELVAAISRSGGSTYYADSVKGRFTISRDNAKNTVYLQMKSLKPEDTAVYYCAAEYRVRAQGYVYWGQGTQVTVSS	high polyreactivity
QVQLVESGGGLVQAGGSLRLSCAASGRTFGQYAMGWYRQAPGKERELVAAISWGGGRTYYADSVKGRFTISRDNAKNTVYLQMNSLKPEDTAVYYCNAVYSPRYYVGGYDYWGQGTQVTVSS	high polyreactivity
QVQLVESGGGLVQAGGSLRLSCAASGSTFYFYTMVWYRQAPGKEREFVAAISRRGGSTYYADSVKGRFTISRDNAKNTVYLQMNSLKPEDTAVYYCAAYTSTSDNGDSWGQGTQVTVSS	high polyreactivity
QVQLVESGGGLVQAGGSLSLSSAASGFTSTLNDMGWYRQAPGKERELVAAISNGGSTYYADSVKGRFTISRDNAKNTVYLQMNSLKPEDTAVYYCAVTATAPQEGDYWGQGTQVTVSS	low polyreactivity
QVQHVESRGGLVQAGGSLRLSCAASGRTFSRNAMGRYRQAPGKERELVATITSDGSTNYADSVKGRFTISRDNAKNTVYLQMNSLKPEDTAVYYCAAGEQSSIIGAHDYWGQGTQVTVSS	low polyreactivity
QVQLVESGGGLVQAGGSLRLSCAASGSNYYYYAIGWYRQAPGKERELVAAISWSGASTFYADSVKGRFTSSRDNAKNTVYLQMNSLKPEDTAVYYCAARYYGQPQYQPLYYWGQGTQVTVSS	high polyreactivity
QVQLVESGGGLVQAGRSLRLTCAASGRTLGYNAMGWYRQPPGKERELVAAITYSGSRTYYADSVKGRFTISRDNAKNTVYLQMNSLKPEDTAVYYCAAGGYIAYYYYRFDYWGQGTQVTVSS	high polyreactivity
QVQLVESGGGLVQAGGSLRLSCAASGSIFPFNAMGWYRQAPGKERELVAAIRWSDGRTYYADSVKGRFTISRDNAKNTVYLQMNSLKPEDTAVYYCAAKSYWGQGTQVTVSS	high polyreactivity
QVHLVDSGGGLVQAGGSLRLSCAASGLIFVSYAMGWYRQEPGKERELVASITDSDSSTYYADSVKGRFTISRDNAKNTVYLQMNSLKPEDTAVYYCATGGRTEIWYPTLDYWGQGTQVTVSS	low polyreactivity
QGQLVESGGGLVQAGGSLRLSCAASGIIFTANVMGWYRQAPGKERELVAAITRGGNTYYADSVKGRFTISRDNAKNTVYLQMNSLKPEDTAVYYCAAADYTTPVPYGRKGFDYWGQGTQVTVSS	low polyreactivity
QVQLVESGGGLVQAGGSLRLSCAASGLTFPSNAMGWYRQAPGKERELVAAISKRGGRTYYADSVKGRFTISRDNAKNTVYLQINSLKPEDTAVYYCAAVPWYVSHDFDYWGQGTQVTVSS	high polyreactivity
QVQLVESGGGLDQAAGSLRLSCAASGSIFDAYMRWYIQAPGKERELVAGITRSGGSTYYADSVKGRFTISRDNAKIKVYLQMNSLKPEDTAVDFCAADYSSDGDYWGLGTQVTVSS	low polyreactivity

Sequence	polyreactivity (PSR sort gate)
QVQLVESGGGLVQAGGSLRLSCAASGSTFVRYAMGWYRQEPGKERELVAAISKSGGSTYYADSVKGRFTISRDNAKNTVYLQMNSLKPEDTAVYYCNADVYKNSKFRIMGYWGQGTQVTVSS	low polyreactivity
QVQLVESGGGLVQAGGSLRLSCAASGRTFGHNAMGWYRQAPGKERELVAAISASGSNTYYADSVKGRFTISRDNAKNTVYLQMNSLKPEDTAVYYCAKQVYRTGQQSRYDYWGQGTQVTVSS	low polyreactivity
QVQLVESRGGLVQAGGSLRLSCAASGRILPYHVMGWYSQAPGKERELVAAISSGGTTDYADSVKGRFTISRDNANNTVYLQMNSLKPEDTAVYYCAATYDYWTWGYDYWGQGTQVTVSS	low polyreactivity
QVQLVESGGGLVQAGGSLRLSCAASGFILLYYAMGWYRQAPVKERELVATITWSDGSTYYADSVKGRFTISRDNAKNTVYLQMNSLKPEDTAVYYCASPYKRYFYKGGDYWGQGTQVTVSS	low polyreactivity
QVQLVESGGGLVQAGGSLRLSCAASGSTFYRYTMGWYRQAPGTERELVSAISRSGGSTYYADSVKGRFTISRDNAKNTVYLQMNSLKPEDTAVYYCATYGDFKSGYRYGYWGQGTQVTVSS	high polyreactivity
QVQLVESGGGLVQAGGSLRLSCAASGRILYVYVMGWYRQAPGKERELVAAITTSGDSTYYADSVKGRFTISRDNAKNTVYLQMNRLKPEDTAVYYCNAEEHDYVAHMDYWGQGTQVTVSS	low polyreactivity
QVQLVESGGGLVQAGGSLRLSCPASGSILYSYAMGWYRQAHGKERELVAAITGDGASTNYADSVKGRFTISRDNAKNTVYFQMNSLKPEDTAVYYCNAGRESDDVYEGSQRIGQFDYWGQGTLVTVSS	low polyreactivity
QVQLVESGGGLVQAGGSLRLSCAASGSIFYYYAMGWYRQAPGKERELVAAITYSGGSTHYADSVKGRFTISRDNAKNTVYLQMNSLKPDDTAVFYCAVYYRSHSGSRIYYWGQGTQVTVSS	high polyreactivity
QVQLVESGGGLVQAGGSLRLSCAASGRTFTQYAMGWYRQAPGKDRELVAAIDYRGSRTYYADSVKGRFTLTRDKAKNTVYLQMNSLKPEDTAVYYCNTVHRFGTYDYWGEGTQVTVSS	high polyreactivity
QVQLVESGGGVVQAGGSLRLSCAASGFIISYNVMVWYRQAPGKERELVAAISSSGGSTYYADSVKGRFTISRDNAKNTVYLQMNSLKPEDTAVYYCATRVSRSFRAYDYWGQRTQVTVSS	high polyreactivity
QVQLVESGRGLVQAGGSLRLSCAASGRIFYVYAMGWSRTAPGKERELVAAITQSGGRTYYADSVKGRFTISRDNAKNTVYLQMNSLKPEDTAVYYCAATWLGSRNLVHITLYYWGQGTQVTVSS	low polyreactivity
QVQLLESGGGLVQPGGSLRLSCAASGSTFIGYAMGWYRQAPGKETELVAAISWSGGRTYYADSVKGRFTISRDNAKNTVYLQMNSLKAEDTAVYYCNTVPYRISVQFNYWGQGTQVTVSS	high polyreactivity
QVQLVESGGGLVQAGGSLRLSCAASGNIFSSNAMGWYRQAPGKERELDAAITRSGGSTYYADSVKGRFTISRDNAKNTVYLQMNSLKPEDTAVYYCAARHYPRNSWGYDYWGQGTQVTVSS	high polyreactivity
QVQLVESVGGLVQAGASLRLSCAASGRTFATYAKGWYRQAPGKERELVAAISRSGGSTYYADSVKGRFTISRDNAKNTVYLQMHSLKPEDTAGYYCAARYVRQYYRAEDYWGQGTQVTVSS	high polyreactivity
QVQLVESGGGLVQAGGSLRLSCAASGSIFVTYAMGWYRQAPGKERELVASISWRGVSTRYADSVKGRFTISRDNAKNTVYLQMNSLKPEDTAVDYCAAVYRRTRSGIFDYWGQGTQVTVSS	high polyreactivity
QVQLVESGGGLVQAGGSLRLSCAASGRTFRYNAMGWYRQAPGKERELVATISSSGGSTSYADSVKGRFTISRDNAKNTVYLQMNSLKPEDTAVYYCAADEWGVRSEYDYWGQGTQVTVSS	low polyreactivity
QVQLVDSGGGLVQAGGSLRLSCAASGFNFVFNAMGWYRQAPGKERELVAAINGGDITNYADSVKGRFTISRDNAKNTVYLQMNSLKPEDTAVYYCAADGEYSLWTGYDYDYWGQGTQVTVSS	low polyreactivity
QVQHVESGGGLVQAGGSLRLSCAASGIFFFYGMGWYRQAPGKQRQLLAVISTGDTTDYADSVKGRSTISRDNAKNTVYLQMNSLIPEDTAVYYCAATGRSRSYSWSKLNYWGQGTQVTVSS	low polyreactivity
QVQLVESGGGLVQAGGSLRLSCAASGSIFKIYAKGWYRQAPGKERELVASITGSGGSTYYADSVKGRFTISRDNAKNTVYLQMNSLKPEDTAVYYCAAAVLGSSKSEVDPDRPEYYYWGQGTQVTVSS	low polyreactivity
QVQLVESGGCLVKAGGSLRLSCAASGSIFGHYAMGWYRQAPGKERELVASIDSGGRTNYADSVKGRFTISLDNAKNTVYLQMISLKPEDTGVYYCNTTSVKTRGYGYWGQGSQVTVSS	low polyreactivity
QVQLVESCGGLVQEGGSLRLSCAASGFTFLRYAMGWYRQAPGKERELVAAISIPGGNTYYADSVKGRFTISRDNAKNTVYLQMNSLKPEDTAVYYCAARFGGGAARHGYWGQGTQVTVSS	high polyreactivity
